Source: patent US20060263342A1 (YEDA RESEARCH AND DEVELOPMENT, published 2006)
One block for each molecule: values may come before it.

Key:
[1] = biological target: murine B7.1 on HCT/HHD/B7.1 cells (murine) (UniProt Q00609); test: flow cytometry on HCT/HHD/B7.1 cells
HLA-A2.1 on T2 cells [2] = biological target: T1, HLA-A2.1 on T2 cells (human); test: T2 stabilization assay, acid stripped T2 cells with peptide and recombinant β2m, BB7.2 staining, FACS
T1 construct: MHC class I molecule without the tested peptide
Experimental: (§1) T2 cells were acid stripped and incubated with the indicated peptide and recombinant β2m or with β2m alone as a negative control. […] Cells were stained with BB7.2 mAb and analyzed by FACS. The number of positive cells above control level is indicated for each of the peptides.

HLA-A2.1 on T2 cells [3] = biological target: T1, HLA-A2.1 on T2 cells; test: T2 stabilization assay, FACS
Experimental: as §1

Chain of murine B7.1 on HCT/HHD/B7.1 cells (murine) (Q00609 38-306): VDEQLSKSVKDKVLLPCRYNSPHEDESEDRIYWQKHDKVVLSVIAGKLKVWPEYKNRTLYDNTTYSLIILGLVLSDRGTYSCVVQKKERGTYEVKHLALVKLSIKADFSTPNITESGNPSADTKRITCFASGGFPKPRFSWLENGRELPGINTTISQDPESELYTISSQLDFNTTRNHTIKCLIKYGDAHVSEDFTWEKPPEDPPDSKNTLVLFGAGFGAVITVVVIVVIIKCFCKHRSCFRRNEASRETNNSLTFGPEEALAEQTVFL

- percent stained cells [1]: 100%
Molecule: CTLA-4-Ig fusion protein (Fc fusion)

- binding result (HLA-A2.1 on T2 cells [2]): binds
Molecule: LILGIFMTI (also called 1-8D peptide 3-5) [peptide 3-5 (from human 1-8D interferon induced transmembrane protein 2)]

- binding result (HLA-A2.1 on T2 cells [3]): binds
Molecule: KCLNIWALI (also called 1-8D peptide 3-7) [peptide 3-7 (from human 1-8D and 1-8U interferon inducible genes)]
